Laboratory results taken from patent US20230143003A1 (JULIUS MAXIMILIANS UNIVERSIT T W RZBURG, published 2023).
Where two headings read alike, the source gives them in different places.

Tests used:
[1] = target: T1, hROR2-Fc (human ROR2 Fc fusion protein) (human, UniProt Q01974 34-403, limits assumed); assay: SPR, Biacore X100; hROR2-Fc captured, Fab injected
T1 construct: Given both as hROR2-Fc and as Fc-hROR2, so the order of the two parts is not certain; also called Fc-hROR2; not shown: human Fc part (captured by a mouse anti-human IgG CH2 / Fcγ mAb)

[2] = target: T1, hROR2-Fc (human ROR2 Fc fusion protein); assay: SPR (Biacore X100), Fc-hROR2 captured on CM5 chip via mouse anti-human Fcγ mAb, Fab as analyte, 1:1 binding model
Method: (§1) A CM5 chip immobilized with a mouse anti-human Fcγ mAb was used to capture Fc-hROR2.
(§2) Kinetic and thermodynamic parameters for the ROR2 binding of purified anti-ROR2 Fab variants were measured by use of SPR as previously described [29], performed on a Biacore X100 instrument using Biacore reagents and software (GE Healthcare). Briefly, a CM5 sensor chip was immobilized with a mouse anti-human IgG CH2 mAb in order to capture the hROR2-Fc antigen.

[3] = target: T2, human ROR1 on cells (MDA-MB-231, ROR2-, ROR1+; also 786-O, ROR2+, ROR1+) (human, UniProt Q01973 30-937); assay: flow cytometry on MDA-MB-231 cells (ROR2-, ROR1+); Fab followed by PE-conjugated goat anti-human F(ab')2 pAbs
T2 construct: whole, on cells
Method: Cells were analyzed using a FACSCanto instrument (BD Biosciences) and FlowJo analytical software (Tree Star).

[4] = target: T1, hROR2-Fc (human ROR2 Fc fusion protein); assay: SPR (Biacore X100), Fc-hROR2 captured on CM5 chip via mouse anti-human Fcγ mAb, Fab as analyte, 1:1 binding model; remark: listed apart in the source
Method: as §1, §2

Row | Binder | Kd [1] | koff [2] | kon [2] | binding result [3] | Kd [4] | koff [4] | kon [4]
1 | hX3.12.8 Fab (Fab, V domains shown, The text says that hX3.12.5 to hX3.12.8 all utilized VL2) VH: EQQVVESGGGLVQPGGSLRLSCAASGFSLSSYGVTWVRQAPGKGLEWVGYINTAGNTYYASWAKSRFTISRDNSKNTVYLQMNSLRAEDTAVYYCARDDRWSLNIWGQGTLVTVSS VL: DPMLTQSPSSLSASVGDRVTITCQASQSISSDLSWYQQKPGKAPKLLIYQASTLASGVPSRFKGSGYGTEYTLTISSLQPEDFATYYCLGGYADASYRTAFGGGTKLEIK | 5.2 nM | 0.00067 s⁻¹ | 130000 M⁻¹ s⁻¹ |  |  |  | 
2 | h401.6 Fab (hX3.12.6 framework regions with parental 401 CDR sequences) (Fab, V domains shown, this is an inference) VH: EVQLVESGGGLVQPGGSLRLSCAASGFTFSSYGVTWVRQAPGKGLEWVSYINTAGNTYYASWAKSRFTISRDNAKNSLYLQMNSLRAEDTAVYYCARDWTSLNIWGQGTLVTVSS VL: DPMLTQSPSSLSASVGDRVTITCQASQSISSDLSWYQQKPGKAPKLLIYQASTLASGVPSRFKGSGYGTEYTLTISSLQPEDFATYYCLGGYADASYRTAFGGGTKLEIK | 16 nM | 0.00023 s⁻¹ | 14000 M⁻¹ s⁻¹ | no binding |  |  | 
3 | hX3.12.7 Fab (Fab, V domains shown, The text says that hX3.12.5 to hX3.12.8 all utilized VL2) VH: EQQVVESGGGLVQPGGSLRLSCAVSGFSLSSYGVTWVRQAPGKGLEWIGYINTAGNTYYASWAKSRFTISRNTNENTVYLQMNSLRAEDTAVYFCARDDRWSLNIWGQGTLVTVSS VL: DPMLTQSPSSLSASVGDRVTITCQASQSISSDLSWYQQKPGKAPKLLIYQASTLASGVPSRFKGSGYGTEYTLTISSLQPEDFATYYCLGGYADASYRTAFGGGTKLEIK | 1.4 nM | 0.00016 s⁻¹ | 110000 M⁻¹ s⁻¹ |  |  |  | 
4 | XBR2-401-hX3.12.5 Fab (affinity matured and humanized) (Fab, V domains shown, Fab expressed in E. coli) VH: EVQLVESGGGLIQPGGSLRLSCAASGFTVSSYGVTWVRQAPGKGLEWVSYINTAGNTYYASWAKSRFTISRDNSKNTLYLQMNSLRAEDTAVYYCARDDRWSLNIWGQGTLVTVSS VL: DPMLTQSPSSLSASVGDRVTITCQASQSISSDLSWYQQKPGKAPKLLIYQASTLASGVPSRFKGSGYGTEYTLTISSLQPEDFATYYCLGGYADASYRTAFGGGTKLEIK | 2.6 nM | 0.00048 s⁻¹ | 190000 M⁻¹ s⁻¹ | no binding |  |  | 
5 | XBR2-401-hX3.12.6 Fab (affinity matured and humanized) (Fab, V domains shown, Fab expressed in E. coli) VH: EVQLVESGGGLVQPGGSLRLSCAASGFTFSSYGVTWVRQAPGKGLEWVSYINTAGNTYYASWAKSRFTISRDNAKNSLYLQMNSLRAEDTAVYYCARDDRWSLNIWGQGTLVTVSS VL: DPMLTQSPSSLSASVGDRVTITCQASQSISSDLSWYQQKPGKAPKLLIYQASTLASGVPSRFKGSGYGTEYTLTISSLQPEDFATYYCLGGYADASYRTAFGGGTKLEIK | 3.8 nM | 0.00022 s⁻¹ | 60000 M⁻¹ s⁻¹ | no binding |  |  | 
6 | X3.6 (Fab, V domains shown, one of the top 12 chimeric rabbit/human anti-human ROR2 Fabs selected from the focused HCDR3 mutagenesis library) VH: QSVKESEGGLFKPTDTLTLTCTVSGFSLSSYGVTWVRQAPGSGLEWIGYINTAGNTYYASWAKSRSTITRNTNENTVTLKMTSLTAADTATYFCARDSRNSLNIWGPGTLVTVSS VL: DPMLTQTPSSTSTAVGDTVTIKCQASQSISSDLSWYQQKPGQRPKLLIYQASTLASGVPSRFKGSGYGTEYTLTISGVQREDAAIYYCLGGYADASYRTAFGGGTKLEIK |  |  |  |  | 3.2 nM | 0.00019 s⁻¹ | 60000 M⁻¹ s⁻¹
7 | XBR2-401 Fab (parental chimeric rabbit/human anti-human ROR2 Fab) (Fab, V domains shown, Chimeric rabbit/human Fab (rabbit variable domains, human constant domains, kappa light chain, His tag)) VH: QSVKESEGGLFKPTDTLTLTCTVSGFSLSSYGVTWVRQAPGSGLEWIGYINTAGNTYYASWAKSRSTITRNTNENTVTLKMTSLTAADTATYFCARDWTSLNIWGPGTLVTVSS VL: DPMLTQTPSSTSTAVGDTVTIKCQASQSISSDLSWYQQKPGQRPKLLIYQASTLASGVPSRFKGSGYGTEYTLTISGVQREDAAIYYCLGGYADASYRTAFGGGTKLEIK |  |  |  |  | 7 nM |  | 
8 | X4.21 (Fab, V domains shown, one of the top 12 chimeric rabbit/human anti-human ROR2 Fabs selected from the focused HCDR3 mutagenesis library) VH: QSVKESEGGLFKPTDTLTLTCTVSGFSLSSYGVTWVRQAPGSGLEWIGYINTAGNTYYASWAKSRSTITRNTNENTVTLKMTSLTAADTATYFCARDSGVVSLNIWGPGTLVTVSS VL: DPMLTQTPSSTSTAVGDTVTIKCQASQSISSDLSWYQQKPGQRPKLLIYQASTLASGVPSRFKGSGYGTEYTLTISGVQREDAAIYYCLGGYADASYRTAFGGGTKLEIK |  |  |  |  | 3.4 nM | 8.1e-05 s⁻¹ | 24000 M⁻¹ s⁻¹
9 | X3.21 (Fab, V domains shown, one of the top 12 chimeric rabbit/human anti-human ROR2 Fabs selected from the focused HCDR3 mutagenesis library) VH: QSVKESEGGLFKPTDTLTLTCTVSGFSLSSYGVTWVRQAPGSGLEWIGYINTAGNTYYASWAKSRSTITRNTNENTVTLKMTSLTAADTATYFCARDGLTSLNIWGPGTLVTVSS VL: DPMLTQTPSSTSTAVGDTVTIKCQASQSISSDLSWYQQKPGQRPKLLIYQASTLASGVPSRFKGSGYGTEYTLTISGVQREDAAIYYCLGGYADASYRTAFGGGTKLEIK |  |  |  |  | 1.9 nM | 9.2e-05 s⁻¹ | 49000 M⁻¹ s⁻¹
10 | X2.12 (Fab, V domains shown, one of the top 12 chimeric rabbit/human anti-human ROR2 Fabs selected from the focused HCDR3 mutagenesis library) VH: QSVKESEGGLFKPTDTLTLTCTVSGFSLSSYGVTWVRQAPGSGLEWIGYINTAGNTYYASWAKSRSTITRNTNENTVTLKMTSLTAADTATYFCARDTMSLNIWGPGTLVTVSS VL: DPMLTQTPSSTSTAVGDTVTIKCQASQSISSDLSWYQQKPGQRPKLLIYQASTLASGVPSRFKGSGYGTEYTLTISGVQREDAAIYYCLGGYADASYRTAFGGGTKLEIK |  |  |  |  | 1.2 nM | 4e-05 s⁻¹ | 34000 M⁻¹ s⁻¹
11 | X3.13 (Fab, V domains shown, one of the top 12 chimeric rabbit/human anti-human ROR2 Fabs selected from the focused HCDR3 mutagenesis library) VH: QSVKESEGGLFKPTDTLTLTCTVSGFSLSSYGVTWVRQAPGSGLEWIGYINTAGNTYYASWAKSRSTITRNTNENTVTLKMTSLTAADTATYFCARDKGWSLNIWGPGTLVTVSS VL: DPMLTQTPSSTSTAVGDTVTIKCQASQSISSDLSWYQQKPGQRPKLLIYQASTLASGVPSRFKGSGYGTEYTLTISGVQREDAAIYYCLGGYADASYRTAFGGGTKLEIK |  |  |  |  | 1.1 nM | 2.7e-05 s⁻¹ | 26000 M⁻¹ s⁻¹
12 | X2.7 (Fab, V domains shown, one of the top 12 chimeric rabbit/human anti-human ROR2 Fabs selected from the focused HCDR3 mutagenesis library) VH: QSVKESEGGLFKPTDTLTLTCTVSGFSLSSYGVTWVRQAPGSGLEWIGYINTAGNTYYASWAKSRSTITRNTNENTVTLKMTSLTAADTATYFCARDSMSLNIWGPGTLVTVSS VL: DPMLTQTPSSTSTAVGDTVTIKCQASQSISSDLSWYQQKPGQRPKLLIYQASTLASGVPSRFKGSGYGTEYTLTISGVQREDAAIYYCLGGYADASYRTAFGGGTKLEIK |  |  |  |  | 1.5 nM | 0.0001 s⁻¹ | 69000 M⁻¹ s⁻¹
13 | X4.35 (Fab, V domains shown, one of the top 12 chimeric rabbit/human anti-human ROR2 Fabs selected from the focused HCDR3 mutagenesis library) VH: QSVKESEGGLFKPTDTLTLTCTVSGFSLSSYGVTWVRQAPGSGLEWIGYINTAGNTYYASWAKSRSTITRNTNENTVTLKMTSLTAADTATYFCARDSRRKSLNIWGPGTLVTVSS VL: DPMLTQTPSSTSTAVGDTVTIKCQASQSISSDLSWYQQKPGQRPKLLIYQASTLASGVPSRFKGSGYGTEYTLTISGVQREDAAIYYCLGGYADASYRTAFGGGTKLEIK |  |  |  |  | 31 nM | 0.0017 s⁻¹ | 54000 M⁻¹ s⁻¹
14 | X4.9 (Fab, V domains shown, one of the top 12 chimeric rabbit/human anti-human ROR2 Fabs selected from the focused HCDR3 mutagenesis library) VH: QSVKESEGGLFKPTDTLTLTCTVSGFSLSSYGVTWVRQAPGSGLEWIGYINTAGNTYYASWAKSRSTITRNTNENTVTLKMTSLTAADTATYFCARDNGSTSLNIWGPGTLVTVSS VL: DPMLTQTPSSTSTAVGDTVTIKCQASQSISSDLSWYQQKPGQRPKLLIYQASTLASGVPSRFKGSGYGTEYTLTISGVQREDAAIYYCLGGYADASYRTAFGGGTKLEIK |  |  |  |  | 10 nM | 0.00034 s⁻¹ | 33000 M⁻¹ s⁻¹
15 | X4.3 (Fab, V domains shown, one of the top 12 chimeric rabbit/human anti-human ROR2 Fabs selected from the focused HCDR3 mutagenesis library) VH: QSVKESEGGLFKPTDTLTLTCTVSGFSLSSYGVTWVRQAPGSGLEWIGYINTAGNTYYASWAKSRSTITRNTNENTVTLKMTSLTAADTATYFCARDWGNWSLNIWGPGTLVTVSS VL: DPMLTQTPSSTSTAVGDTVTIKCQASQSISSDLSWYQQKPGQRPKLLIYQASTLASGVPSRFKGSGYGTEYTLTISGVQREDAAIYYCLGGYADASYRTAFGGGTKLEIK |  |  |  |  | 1.3 nM | 3.8e-05 s⁻¹ | 30000 M⁻¹ s⁻¹
16 | X4.12 (Fab, V domains shown, one of the top 12 chimeric rabbit/human anti-human ROR2 Fabs selected from the focused HCDR3 mutagenesis library) VH: QSVKESEGGLFKPTDTLTLTCTVSGFSLSSYGVTWVRQAPGSGLEWIGYINTAGNTYYASWAKSRSTITRNTNENTVTLKMTSLTAADTATYFCARDYMMNSLNIWGPGTLVTVSS VL: DPMLTQTPSSTSTAVGDTVTIKCQASQSISSDLSWYQQKPGQRPKLLIYQASTLASGVPSRFKGSGYGTEYTLTISGVQREDAAIYYCLGGYADASYRTAFGGGTKLEIK |  |  |  |  | 2.8 nM | 0.00015 s⁻¹ | 53000 M⁻¹ s⁻¹
17 | X2.23 (Fab, V domains shown, one of the top 12 chimeric rabbit/human anti-human ROR2 Fabs selected from the focused HCDR3 mutagenesis library) VH: QSVKESEGGLFKPTDTLTLTCTVSGFSLSSYGVTWVRQAPGSGLEWIGYINTAGNTYYASWAKSRSTITRNTNENTVTLKMTSLTAADTATYFCARDYTSLNIWGPGTLVTVSS VL: DPMLTQTPSSTSTAVGDTVTIKCQASQSISSDLSWYQQKPGQRPKLLIYQASTLASGVPSRFKGSGYGTEYTLTISGVQREDAAIYYCLGGYADASYRTAFGGGTKLEIK |  |  |  |  | 1.4 nM | 4.7e-05 s⁻¹ | 33000 M⁻¹ s⁻¹
